Data reported in PMC3848981 (PLoS Biology, 2013).
Numbering of substitutions follows the chain as printed. Numbers in names are those of the source. One block for each molecule: values may come before it.

Columns and labels:
[1] = target: T1, TRAF4 (Homo sapiens, UniProt Q9BUZ4); assay: isothermal titration calorimetry; type: binding
T1 construct: TRAF domain (TRAF-6His), homotrimer
T1 sequence (Q9BUZ4 283-470): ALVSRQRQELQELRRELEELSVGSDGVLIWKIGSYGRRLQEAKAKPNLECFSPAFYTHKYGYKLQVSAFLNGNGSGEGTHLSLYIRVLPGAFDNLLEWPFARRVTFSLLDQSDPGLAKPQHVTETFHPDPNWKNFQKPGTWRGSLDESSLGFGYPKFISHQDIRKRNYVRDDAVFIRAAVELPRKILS

[2] = target: the molecule itself; assay: native MS; ESI-TOF in native condition, TRAF-6His alone (no lipid), 20 pmol/µL protein in ammonium bicarbonate buffer (100 mM NH4HCO3 pH 8)
[3] = target: the molecule itself; assay: SEC + other: dynamic light scattering; gel filtration of 1 ml containing 1 mg WT or 0.3 mg K345E TRAF domain; DLS with 20 µM protein at 25°C in 10 mM Tris pH 7.5, 150 mM NaCl

Kd [1]: 5.68 µM
Molecule: O=P(O)(O)O[C@H]1[C@H](O)[C@@H](OP(=O)(O)O)[C@H](OP(=O)(O)O)[C@@H](OP(=O)(O)O)[C@H]1O [IP4, inositol-(1,3,4,5)-tetrakisphosphate]

B1: TRAF domain of human TRAF4 fused to a 6His tag (TRAF-6His) (domain or fragment, UniProt Q9BUZ4 283-470, looked up)
chain: T1 sequence (Q9BUZ4 283-470)
notes: Tumor necrosis factor receptor-associated factor 4 (TRAF4), human, TRAF domain; the crystal structure includes residues 283-470 of the TRAF domain; Printed monomer mass 22.6 kDa; also called TRAF4-TRAF domain; WT TRAF domain
stoichiometry N [2]: 3

B2: K345E mutant TRAF domain of TRAF4 (domain or fragment, human, UniProt Q9BUZ4 283-470, looked up)
chain: T1 sequence (Q9BUZ4 283-470) with K63E
notes: Tumor necrosis factor receptor-associated factor 4 (TRAF4), human, TRAF domain with K345E; same limits as the wild-type TRAF domain, whose structure includes residues 283-470; also called TRAF-K345E; TRAF-6HIS K345E; source: E. coli, purified
stoichiometry N [3]: 3
